B1: E. coli ClpX (containing a neutral K408E mutation) (enzyme)
chain: not shown

Experiments:
[1] = target: B1; assay: cryo-EM structure
cryo-EM structure = target: the molecule itself; assay: cryo-EM structure

Row | binding result [1] | Binder | binding result (cryo-EM structure)
1 | binds | E. coli ClpP (enzyme) not shown | binds
2 | binds | E. coli SspB (natural protein) MDLSQLTPRRPYLLRAFYEWLLDNQLTPHLVVDVTLPGVQVPMEYARDGQIVLNIAPRAVGNLELANDEVRFNARFGGIPRQVSVPLAAVLAIYARENGAGTMFEPEAAYDEDTSIMNDEEASADNETVMSVIDGDKPDHDDDTHPDDEPPQPPRGGRPALRVVK | –
3 | – | B1 | binds

— PMC9963277 (Proceedings of the National Academy of Sciences of the …, 2023)
